Drawing on PMC2602759, this text covers stoichiometry N for one substance.

“And” between values parts separate entries of the source, which are not always exact repeats. Equal values may be shown once.

As usually defined, the stoichiometry N is the number of molecules, sites or subunits per partner or assembly.

Assay [1] addresses HIV-1 integrase (IN) (HIV-1). The experiment in a line: cross-linking.
The target of assay [2] is HIV-1 integrase (IN) (HIV-1). As to the kind of experiment: SEC. A general note: Size exclusion chromatography separates by hydrodynamic size, large species first.

Turning to HIV-1 integrase (IN) (enzyme), the stoichiometry N in assay [1] was 2; in assay [2], 2 and 4.
